Laboratory results published in publication PMC10716581, “Fanconi anemia-associated mutation in RAD51 compromises the coordinated action of DNA-binding and ATPase activities”.

Molecular target: RAD51 WT (human, UniProt Q06609 1-339)
Experiment: EMSA; 2 mM ATP, 10 mM Mg2+; 20 mM Hepes-NaOH pH 7.5, 0.1 mg/ml BSA, 1 mM DTT, 10 mM MgCl2, 150 mM KCl, 2 mM ATP or AMP-PNP or no nucleotide, 2.7 uM (nt) DNA, 37 C 10 min; 8% native PAGE in 1x TBE
Conditions: protein: recombinant; tags: N-terminal His-tag removed with thrombin; chain copies: 8; label: 5'-Cy5 on strand 1; blunt

Chain of RAD51 WT (Q06609 whole entry): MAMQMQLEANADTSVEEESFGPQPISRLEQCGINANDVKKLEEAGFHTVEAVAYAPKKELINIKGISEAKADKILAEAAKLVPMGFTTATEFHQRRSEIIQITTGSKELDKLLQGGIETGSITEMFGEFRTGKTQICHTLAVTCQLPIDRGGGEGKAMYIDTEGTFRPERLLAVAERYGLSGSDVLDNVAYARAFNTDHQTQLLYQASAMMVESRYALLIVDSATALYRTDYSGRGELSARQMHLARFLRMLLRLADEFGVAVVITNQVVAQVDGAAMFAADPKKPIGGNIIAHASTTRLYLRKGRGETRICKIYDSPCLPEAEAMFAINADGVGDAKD

B1: Cy5-OL4/OL5 40-mer (dsDNA)
DNA 1: TAATACAAAATAAGTAAATGAATAAACAGAGAAAATAAAG
DNA 2: CTTTATTTTCTCTGTTTATTCATTTACTTATTTTGTATTA
binding result: binds
